Measurements published in patent publication US20100260668A1 (published 2010).

Columns and labels:
[1] = target: T1, VEGF (VEGF 1-165 aa, R&D Systems 293-VE-010) (UniProt P15692 27-191); assay: Direct bind ELISA, VEGF coated on plate; VEGF domain N-term., HC short/LC short
T1 construct: bought reagent; also called vascular endothelial growth factor

[2] = target: T1, VEGF (VEGF 1-165 aa, R&D Systems …); assay: Direct bind ELISA, VEGF coated on plate; VEGF domain C-term., HC long/LC long
[3] = target: T1, VEGF (VEGF 1-165 aa, R&D Systems …); assay: Direct bind ELISA, VEGF coated on plate; VEGF domain C-term., HC long/LC short
[4] = target: T1, VEGF (VEGF 1-165 aa, R&D Systems …); assay: Direct bind ELISA, VEGF coated on plate; VEGF domain N-term., HC long/LC short
[5] = target: T1, VEGF (VEGF 1-165 aa, R&D Systems …); assay: Direct bind ELISA, VEGF coated on plate; VEGF domain C-term., HC short/LC short

T1 sequence (P15692 other isoform, or with tags, fused parts or gaps limits assumed): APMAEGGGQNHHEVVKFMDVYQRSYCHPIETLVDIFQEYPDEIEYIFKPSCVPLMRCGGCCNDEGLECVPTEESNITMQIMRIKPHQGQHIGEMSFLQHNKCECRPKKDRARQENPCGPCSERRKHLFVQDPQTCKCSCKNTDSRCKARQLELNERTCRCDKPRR

B1: DVD492 (bispecific antibody, human IgG1, kappa)
heavy: not shown
light: DIQMTQSPSSLSASVGDRVTITCRASQVIRRSLAWYQQKPGKAPKLLIYAASNLASGVPSRFSGSGSGTDFTLTISSLQPEDFATYYCQQSNTSPLTFGQGTKVEIKRTVAAPDIQMTQSSSYLSVSLGGRVTITCKASDHINNWLAWYQQKPGNAPRLLISGATSLETGVPSRFSGSGSGKDYTLSITSLQTEDVATYYCQQYWSIPLTFGAGTKLELKRTVAAPSVFIFPPSDEQLKSGTASVVCLLNNFYPREAKVQWKVDNALQSGNSQESVTEQDSKDSTYSLSSTLTLSKADYEKHKVYACEVTHQGLSSPVTKSFNRGEC
notes: DVD-Ig; N-term; AB071 (VEGF), C-term; AB072 (DLL4); HC linker short, LC linker short; also called DVD-Ig DVD492; DVD492H/DVD492L
EC50 [1]: 8.42 nM

B2: DVD497 (bispecific antibody, human IgG1, kappa)
heavy: not shown
light: DIQMTQSSSYLSVSLGGRVTITCKASDHINNWLAWYQQKPGNAPRLLISGATSLETGVPSRFSGSGSGKDYTLSITSLQTEDVATYYCQQYWSIPLTFGAGTKLELKRTVAAPSVFIFPPDIQMTQSPSSLSASVGDRVTITCRASQVIRRSLAWYQQKPGKAPKLLIYAASNLASGVPSRFSGSGSGTDFTLTISSLQPEDFATYYCQQSNTSPLTFGQGTKVEIKRTVAAPSVFIFPPSDEQLKSGTASVVCLLNNFYPREAKVQWKVDNALQSGNSQESVTEQDSKDSTYSLSSTLTLSKADYEKHKVYACEVTHQGLSSPVTKSFNRGEC
notes: DVD-Ig; N-term; AB072 (DLL4), C-term; AB071 (VEGF); HC linker long, LC linker long; also called DVD-Ig DVD497; DVD497H/DVD497L
EC50 [2]: 858 nM

B3: DVD503 (bispecific antibody, human IgG1, kappa)
heavy: not shown
light: DIQMTQSSSYLSVSLGGRVTITCKASDHINNWLAWYQQKPGNAPRLLISGATSLETGVPSRFSGSGSGKDYTLSITSLQTEDVATYYCQQYWSIPLTFGAGTKLELKRTVAAPDIQMTQSPSSLSASVGDRVTITCRASQVIRRSLAWYQQKPGKAPKLLIYAASNLASGVPSRFSGSGSGTDFTLTISSLQPEDFATYYCQQSNTSPLTFGQGTKVEIKRTVAAPSVFIFPPSDEQLKSGTASVVCLLNNFYPREAKVQWKVDNALQSGNSQESVTEQDSKDSTYSLSSTLTLSKADYEKHKVYACEVTHQGLSSPVTKSFNRGEC
notes: DVD-Ig; N-term; AB072 (DLL4), C-term; AB071 (VEGF); HC linker long, LC linker short; also called DVD-Ig DVD503; DVD503H/DVD503L
EC50 [3]: 430 nM

B4: DVD504 (bispecific antibody, human IgG1, kappa)
heavy: not shown
light: DIQMTQSPSSLSASVGDRVTITCRASQVIRRSLAWYQQKPGKAPKLLIYAASNLASGVPSRFSGSGSGTDFTLTISSLQPEDFATYYCQQSNTSPLTFGQGTKVEIKRTVAAPDIQMTQSSSYLSVSLGGRVTITCKASDHINNWLAWYQQKPGNAPRLLISGATSLETGVPSRFSGSGSGKDYTLSITSLQTEDVATYYCQQYWSIPLTFGAGTKLELKRTVAAPSVFIFPPSDEQLKSGTASVVCLLNNFYPREAKVQWKVDNALQSGNSQESVTEQDSKDSTYSLSSTLTLSKADYEKHKVYACEVTHQGLSSPVTKSFNRGEC
notes: DVD-Ig; N-term; AB071 (VEGF), C-term; AB072 (DLL4); HC linker long, LC linker short; also called DVD-Ig DVD504; DVD504H/DVD504L
EC50 [4]: 16.7 nM

B5: DVD489 (bispecific antibody, human IgG1, kappa, L234A L235A)
heavy: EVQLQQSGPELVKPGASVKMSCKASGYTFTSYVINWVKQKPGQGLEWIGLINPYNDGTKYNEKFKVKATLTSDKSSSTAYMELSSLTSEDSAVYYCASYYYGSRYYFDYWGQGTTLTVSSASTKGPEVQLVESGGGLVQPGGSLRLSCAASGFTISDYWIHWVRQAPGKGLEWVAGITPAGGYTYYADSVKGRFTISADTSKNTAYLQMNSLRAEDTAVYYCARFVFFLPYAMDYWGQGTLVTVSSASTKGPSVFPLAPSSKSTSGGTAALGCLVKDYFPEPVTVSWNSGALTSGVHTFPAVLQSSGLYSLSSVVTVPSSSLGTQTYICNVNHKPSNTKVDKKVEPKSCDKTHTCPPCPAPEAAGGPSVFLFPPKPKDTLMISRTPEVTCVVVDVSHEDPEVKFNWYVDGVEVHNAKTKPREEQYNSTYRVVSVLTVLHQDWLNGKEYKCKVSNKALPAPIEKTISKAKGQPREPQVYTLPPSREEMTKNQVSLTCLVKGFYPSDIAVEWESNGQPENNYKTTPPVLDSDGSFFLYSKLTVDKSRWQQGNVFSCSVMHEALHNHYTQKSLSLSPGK
light: DIQMTQSSSYLSVSLGGRVTITCKASDHINNWLAWYQQKPGNAPRLLISGATSLETGVPSRFSGSGSGKDYTLSITSLQTEDVATYYCQQYWSIPLTFGAGTKLELKRTVAAPDIQMTQSPSSLSASVGDRVTITCRASQDVSTAVAWYQQKPGKAPKLLIYSASFLYSGVPSRFSGSGSGTDFTLTISSLQPEDFATYYCQQSYTTPPTFGQGTKVEIKRTVAAPSVFIFPPSDEQLKSGTASVVCLLNNFYPREAKVQWKVDNALQSGNSQESVTEQDSKDSTYSLSSTLTLSKADYEKHKVYACEVTHQGLSSPVTKSFNRGEC
notes: DVD-Ig; N-term; AB072 (DLL4), C-term; AB070 (VEGF); HC linker short, LC linker short; also called DVD-Ig DVD489; DVD489H/DVD489L
EC50 [5]: 181 nM

B6: DVD490 (bispecific antibody, human IgG1, kappa)
heavy: not shown
light: DIQMTQSPSSLSASVGDRVTITCRASQDVSTAVAWYQQKPGKAPKLLIYSASFLYSGVPSRFSGSGSGTDFTLTISSLQPEDFATYYCQQSYTTPPTFGQGTKVEIKRTVAAPDIQMTQSSSYLSVSLGGRVTITCKASDHINNWLAWYQQKPGNAPRLLISGATSLETGVPSRFSGSGSGKDYTLSITSLQTEDVATYYCQQYWSIPLTFGAGTKLELKRTVAAPSVFIFPPSDEQLKSGTASVVCLLNNFYPREAKVQWKVDNALQSGNSQESVTEQDSKDSTYSLSSTLTLSKADYEKHKVYACEVTHQGLSSPVTKSFNRGEC
notes: DVD-Ig; N-term; AB070 (VEGF), C-term; AB072 (DLL4); HC linker short, LC linker short; also called DVD-Ig DVD490; DVD490H/DVD490L
EC50 [1]: 6.7 nM

B7: DVD495 (bispecific antibody, human IgG1, kappa)
heavy: not shown
light: DIQMTQSSSYLSVSLGGRVTITCKASDHINNWLAWYQQKPGNAPRLLISGATSLETGVPSRFSGSGSGKDYTLSITSLQTEDVATYYCQQYWSIPLTFGAGTKLELKRTVAAPSVFIFPPDIQMTQSPSSLSASVGDRVTITCRASQDVSTAVAWYQQKPGKAPKLLIYSASFLYSGVPSRFSGSGSGTDFTLTISSLQPEDFATYYCQQSYTTPPTFGQGTKVEIKRTVAAPSVFIFPPSDEQLKSGTASVVCLLNNFYPREAKVQWKVDNALQSGNSQESVTEQDSKDSTYSLSSTLTLSKADYEKHKVYACEVTHQGLSSPVTKSFNRGEC
notes: DVD-Ig; N-term; AB072 (DLL4), C-term; AB070 (VEGF); HC linker long, LC linker long; also called DVD-Ig DVD495; DVD495H/DVD495L
EC50 [2]: 70 nM

B8: DVD501 (bispecific antibody, human IgG1, kappa)
heavy: not shown
light: DIQMTQSSSYLSVSLGGRVTITCKASDHINNWLAWYQQKPGNAPRLLISGATSLETGVPSRFSGSGSGKDYTLSITSLQTEDVATYYCQQYWSIPLTFGAGTKLELKRTVAAPDIQMTQSPSSLSASVGDRVTITCRASQDVSTAVAWYQQKPGKAPKLLIYSASFLYSGVPSRFSGSGSGTDFTLTISSLQPEDFATYYCQQSYTTPPTFGQGTKVEIKRTVAAPSVFIFPPSDEQLKSGTASVVCLLNNFYPREAKVQWKVDNALQSGNSQESVTEQDSKDSTYSLSSTLTLSKADYEKHKVYACEVTHQGLSSPVTKSFNRGEC
notes: DVD-Ig; N-term; AB072 (DLL4), C-term; AB070 (VEGF); HC linker long, LC linker short; also called DVD-Ig DVD501; DVD501H/DVD501L
EC50 [3]: 45.2 nM
